Target: LSD1 (aa 171–852) and RCOR1 (aa 286–485) complex (truncated LC) (UniProt O60341 171-852; Q9UKL0 286-485)
Test: MST; Cy5-labelled His-tag U2AF2 fragments mixed with serially diluted truncated LSD1/RCOR1
Settings: both partners purified

B1: His-tag U2AF2 fragment (aa 241–471), Cy5-labelled (domain or fragment)
chain: NPSVYVPGVVSTVVPDSAHKLFIGGLPNYLNDDQVKELLTSFGPLKAFNLVKDSATGLSKGYAFCEYVDINVTDQAIAGLNGMQLGDKKLLVQRASVGAKNATLVSPPSTINQTPVTLQVPGLMSSQVQMGGHPTEVLCLMNMVLPEELLDDEEYEEIVEDVRDECSKYGLVKSIEIPRPVDGVEVPGCGKIFVEFTSVFDCQKAMQGLTGRKFANRVVVTKYCDPDSYHR
modifications: Cy5 dye at lysine residues (reactive NHS-ester dye)
notes: U2AF2, aa 241-471, composed of RRM2 and UHM; also called U2AF2 241–471; Fluor-U2AF2
Which Kd does the source give for B1 here?
The Kd was 16 µM.

B2: His-tag U2AF2 fragment (aa 85–471), Cy5-labelled (domain or fragment)
chain: KKKVRKYWDVPPPGFEHITPMQYKAMQAAGQIPATALLPTMTPDGLAVTPTPVPVVGSQMTRQARRLYVGNIPFGITEEAMMDFFNAQMRLGGLTQAPGNPVLAVQINQDKNFAFLEFRSVDETTQAMAFDGIIFQGQSLKIRRPHDYQPLPGMSENPSVYVPGVVSTVVPDSAHKLFIGGLPNYLNDDQVKELLTSFGPLKAFNLVKDSATGLSKGYAFCEYVDINVTDQAIAGLNGMQLGDKKLLVQRASVGAKNATLVSPPSTINQTPVTLQVPGLMSSQVQMGGHPTEVLCLMNMVLPEELLDDEEYEEIVEDVRDECSKYGLVKSIEIPRPVDGVEVPGCGKIFVEFTSVFDCQKAMQGLTGRKFANRVVVTKYCDPDSYHR
modifications: Cy5 dye at lysine residues (reactive NHS-ester dye)
notes: U2AF2, aa 85-471; also called U2AF2 85–471; Fluor-U2AF2
With B2 as the binder, how does the Kd read?
Its Kd is 14 µM.

Reference: article PMC12892918, “CoREST complex inhibition alters RNA splicing to promote neoantigen expression and enhance tumor immunity” (JCI Insight, 2025)
